# Reference: US20120282183A1 (CANCER RESEARCH TECHNOLOGY, published 2012)
# T1: human 5T4 oncofoetal glycoprotein (human, UniProt Q13641 32-420)
# T1 construct: whole, on cells; also called h5T4; trophoblast glycoprotein
# T1 sequence (looked up): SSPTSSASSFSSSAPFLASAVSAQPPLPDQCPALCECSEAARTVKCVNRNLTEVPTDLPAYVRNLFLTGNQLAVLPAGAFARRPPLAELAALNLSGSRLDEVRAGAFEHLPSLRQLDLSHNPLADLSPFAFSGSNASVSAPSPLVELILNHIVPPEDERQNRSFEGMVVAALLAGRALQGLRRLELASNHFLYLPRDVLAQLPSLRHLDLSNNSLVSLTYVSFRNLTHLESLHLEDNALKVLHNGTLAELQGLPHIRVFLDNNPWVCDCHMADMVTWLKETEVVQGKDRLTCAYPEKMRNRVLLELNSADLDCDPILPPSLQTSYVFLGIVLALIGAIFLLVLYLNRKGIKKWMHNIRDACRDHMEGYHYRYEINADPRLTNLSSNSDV
# B1: human CXCR4 (receptor, UniProt P61073 1-352, looked up)
# chain: MEGISIYTSDNYTEEMGSGDYDSMKEPCFREENANFNKIFLPTIYSIIFLTGIVGNGLVILVMGYQKKLRSMTDKYRLHLSVADLLFVITLPFWAVDAVANWYFGNFLCKAVHVIYTVNLYSSVLILAFISLDRYLAIVHATNSQRPRKLLAEKVVYVGVWIPALLLTIPDFIFANVSEADDRYICDRFYPNDLWVVVFQFQHIMVGLILPGIVILSCYCIIISKLSHSKGHQKRKALKTTVILILAFFACWLPYYIGISIDSFILLEIIKQGCEFENTVHKWISITEALAFFHCCLNPILYAFLGAKFKTSAQHALTSVSRGSSLKILSKGKRGGHSSVSTESESSSFHSS
# notes: whole, on cells; Endogenous CXCR4 of human tumour cell lines, tested as unreduced solubilised membrane fractions (Western blot, pull down); also called chemokine (C-X-C motif) receptor 4
# Molecular target: T1, human 5T4 oncofoetal glycoprotein
# Test: summary of the pull down and Western blot experiments
# Procedure: Denistometric scans of western blots between approximately 60-140 kDa (5T4 probe) and 30-140 kDa (CXCR4 probe). […] Under reducing conditions, the epitope recognized by 5T4 antibodies is destroyed but CXCR4 at 46 kD is detectable on the reduced gels of the 5T4 pulldown, (not shown). Thus, specific pull downs but not the controls, probed with either anti-CXCR4 or anti-5T4 detected molecules migrating ≈130 kDa in all the tumor lines.
# Western blots were carried out using a BioRad Mini-PROTEAN Tetra (Thermo Fisher) supplemented with protease and phosphatase inhibitor cocktails (Thermo Fisher). RIPA buffer (50 mM Tris-Cl pH 7.4, 150 mM NaCl, 1% NP40, 0.25% Na-deoxycholate, 1 mM PMSF and protease and phosphatase inhibitor cocktail) was used as an alternative method of cell lysis. The compound PD98059 (Thermo Fisher) was applied to cells to inhibit MEK1 at 100 μM for 1 h prior to CXCL12 stimulation. Other primary antibodies used were ERK1/2, phospho-ERK1/2 (Thr202/Tyr204/Thr185/Tyr187), AKT and phospho-AKT (Thr308) (Cell Signalling Technology) at 1:1000. Following secondary antibody labelling using appropriate HRP conjugates (AbSerotec) hybridizing bands were detected using SuperSignal West Dura (Thermo Fischer). […]
binder,measurement,value
B1,binding result,binds
